Results reported in paper PMC3843118, “ABC transporter functions as a pacemaker for sequestration of plant glucosides in leaf beetles” (eLife, 2013).

Substrate: OCc1ccccc1O[C@@H]1O[C@H](CO)[C@@H](O)[C@H](O)[C@H]1O
Assay: efflux of injected substrate from oocytes, HPLC-MS
Assay type: cell-based, Chrysomela populi
Conditions: Xenopus oocytes expressing CpMRP vs water-injected control, modified Barth's medium pH 7.4, room temperature, oocyte volume assumed 1 µl

B1: CpMRP (Chrysomela populi) (protein)
chain: MDNGYQLKYDNPRDKANFISKLFFGWMIGLVRKATRTGLEVGDLYKTREADKSKKLADLLEKNWTKELKRAKLKGTKPSLSRALLKTFTMEYMGWGLLFFIQFVVLRSILPLILSYLISLFQESDMDDMVDRTNAMYICSGILITITAISIFFLHHTNKGLTVVGMKARIAVSSLIYRKITRLNQTSLGETAAGQVVNILSNDVNRFDLVVLSLHCLWTLPIQVALLFYLLWRQVQISCLAGILSMMIICIPGQGYVGKLTGVLRFRVAKKTDTRVKLMNEVISGIQVIKMYAWEKSFEKLIKLMRADEIKDLTSTSYLRGLLLSCVVFIERLTMFLTVTCYVLLGNVITADKVFSMAQFFNILQYGIAILYPMAVSYGAETLISIKRLQDFLLLEERKTPSIETAEDNGIQLSDVSASWTADTRTLRDITLNLPPGTLCAVVGPVGAGKSSLLQLLLGELPLSSGTMSLAGTISYSSQEPWLFQSSVRKNVLFGEPYQSSWYKQVVKVCALEKDFDQFPQRDQTIVGERGVSLSGGQRARINLARAIYRKTDVYLMDDPLSAVDTHVGRHLFDECIYRHLRGKTRILATHQLQYLKNADVIVVMNEGRIEAQGSFEELSDSELDFTKLLVSADETKGESKKLSLVEEPKIDYIKRLSVRSIMSTQSEFIEMMEYGDTEELGVDGNAHPFKDYCKAPRNVCLLVVVIISLILAQAVCSGADYWSSFWTRQEEIRHSTRARPVSDSSEVIQLVPLGNQTISLDGNKYTNENRDFSFDTFFDQVFLDNRIYKLLKTNYSMGVYGFLIIAAIVFTIGRSVLFCKLTMQASTNLHSDMFHTLLKAPMRFFDTNPSGRVLNRFSKDMGAVDEILPRTLLESIQIMLVMCGILVNIAVANPYMLVAMVVMGVCFYFLSKWYVTTASNVKHLEGFTKSPVFSHVNSTLNGITTIRAFRAEEVLCEEFDDQQDVHTSSWYLTLSCIASFGLWMDIVCLLFLACVTFSFVLMHSTSSVNGSLVGLAISQCLILTGMLQHGMRQTSEVINQLTSVERIRQYTKIDTEGPFETPIEKKPLKGWPNRGRLEFRNLVLRYVAEDDPVLRNLTFTVLPGEKVGIVGRTGAGKSSLISALFRLAPTSGSILIDGVDSKVLGLTDLRMKISIIPQEPVLFSATMRYNLDPFDEFDDRSLWDALEQVELKDAVESLDIMVTEGGNNFSLGQRQLICLARAILRNNNILVLDEATANVDQRTDSFIQKTIRRNFEDCTVLTIAHRLNTIMDSDKVLVMHFGEMVEYDHPHILLQLPEGHFHKMVLETGPAIYAQLKDVAEKAYHKNSRL
notes: cRNA expressed in Xenopus laevis oocytes
B1 was tested, and the Km was 5.8 mM.
